In PMC3000947:

What was measured:
purified protein [1] = substrate: Oc1cc(O)c2ccccc2c1; assay: purified protein; settings: 2 mM GPP, 50 mM Hepes-NaOH pH 7.5, 5 mM MgCl2, 30 °C
purified protein [2] = substrate: O=C1C(O)=CC(=O)c2c(O)cc(O)cc21; assay: purified protein; settings: 2 mM GPP, 50 mM Hepes-NaOH pH 7.5, 5 mM MgCl2, 30 °C

B1: Fur7 (Streptomyces sp. KO-3988) (protein)
chain: MPGTDDVAVDVASVYSAIEKSAGLLDVTAAREVVWPVLTAFEDVLEQAVIAFRVATNARHEGDFDVRFTVPEEVDPYAVALSRSLIAKTDHPVGSLLSDIQQLCSVDTYGVDLGVKSGFKKVWVYFPAGEHETLARLTGLTSMPGSLAGNVDFFTRYGLADKVDVIGIDYRSRTMNVYFAAPSECFERETVLAMHRDIGLPSPSEQMFKFCENSFGLYTTLNWDTMEIERISYGVKTENPMTFFARLGTKVEHFVKNVPYGVDTQKMVYAAVTSSGEEYYKLQSYYRWRSVSRLNAAYIAARDKEST
Km (purified protein [1]): 320 ± 20 µM
kcat (purified protein [1]): 0.13 ± 0.05 × 10^-3 s^-1
kcat/Km (purified protein [1]): 0.41 M⁻¹ s⁻¹
Km (purified protein [2]): 48 ± 2 µM
kcat (purified protein [2]): 28 ± 3 × 10^-3 s^-1
kcat/Km (purified protein [2]): 580 M⁻¹ s⁻¹
